The supplement of paper PMC10567573

B1: TRIM14 (parent)
chain: YARTPTLDPDTMHARLRLSADRLT

Variants of: B1
Experiment: protein stability index of a GFP-peptide fusion (GPS, HEK-293T) (PSI 1-6); higher = more stable
Details: c terminus: a fixed tail appended
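Note: lentivirally expressed fusions sorted by FACS into six bins by GFP to DsRed ratio, PSI derived from sequencing read proportions per bin multiplied by bin number.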

Protein stability index: each site, then its substitutions
L16: S 3.52, N 2.57, V 2.49, H 3.27, M 2.67, Q 2.93, K 3.01, P 2.94, W 2.56, R 3.27, D 2.77, T 3.02, F 2.84, E 3.5, Y 2.19, I 2.56, C 1.93
L7: M 2.81, S 2.98, I 1.94, V 3.33, N 2.54, K 2.56, H 2.65, A 2.75, T 2.46, W 2.31, R 2.76, G 2.44, Y 2.63, E 3.65, C 2.1, Q 2.81, D 3.54, F 2.54
M12: F 2.01, I 2.62, A 2.56, L 2.43, R 3.07, Y 2.01, C 2.34, D 3.94, P 3.2, N 3.63, E 3.6, G 2.89, H 3.13, T 2.74, K 2.72, S 3.21, V 2.06, Q 2.68
R3: E 2.18, F 1.85, P 1.76, H 3.12, G 2.78, K 2.87, M 2.53, V 3, T 3.05, C 3.02, A 2.66, I 2.57, Y 1.83, W 1.92, N 3.14, L 3.34, D 3.8, Q 3.81, S 2.86
A14: M 2.36, Y 1.98, S 3.02, D 3.25, T 2.61, Q 2.59, E 2.67, P 2.45, W 2.7, R 2.13, G 3.26, K 1.83, V 2.53, H 2.04, N 3.08, F 1.96, I 2.13, C 2.62, L 2.81
P5: I 2.17, R 1.98, A 2.08, M 1.54, F 2.06, D 3.57, Q 2.56, K 3.12, W 2.37, H 2.84, N 2, S 2.16, G 2.88, Y 2.11, L 2.34, C 2.18, E 2.62, V 1.96
R15: L 2.29, N 2.61, H 2.73, P 2.83, T 3.03, Q 2.43, V 2.04, F 1.93, A 2.81, I 2.87, C 1.85, M 2.73, Y 2.26, D 2.8, S 3.53, E 3.25, G 3.36, K 2.45, W 1.95
H13: D 3.77, E 2.71, N 2.75, Y 2.3, T 2.77, V 2.23, A 2.62, P 3.06, C 2.27, S 3.17, F 2.63, R 2.87, Q 2.84, K 2.15, W 2.51, I 2.69, L 2.61, M 2.69
S19: T 2.77, V 3.62, Q 2.72, I 2.79, A 2.5, R 2.88, K 2.29, F 1.99, E 2.93, C 2.42, M 2.06, L 2.33, D 2.59, N 3.01, Y 1.89, H 2.26, W 1.77, G 2.21, P 3.06
A20: C 2.14, D 2.83
